{"source": "patent US20070185028A1", "about": "“Compositions and methods for treatment of protein misfolding and protein aggregation diseases” (priority 2004, published 2007)", "format_in_all_cases": "biochemical", "key": {"β2-microglobulin (β2m)": {"molecular_target": "T1, β2-microglobulin (β2m) (Homo sapiens, UniProt P61769)", "T1 construct": "purchased MP Biomedical", "T1 sequence (P61769 21-119)": "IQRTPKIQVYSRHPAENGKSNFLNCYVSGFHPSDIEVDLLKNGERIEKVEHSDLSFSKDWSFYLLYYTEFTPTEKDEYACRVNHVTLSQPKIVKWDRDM", "assay": "β2-microglobulin fibrillation ThT assay", "details": "1:1 ratio", "experimental": "Addition of 5.8 μM αB crystallin peptides, ST, DR, LT, HG, and ER decreased the ThT fluorescence of β2m by 40-64%. When the concentration of the αB crystallin peptides was increased to 29 μM and 145 μM, no further decrease in ThT fluorescence was observed. The negative control peptide AT1 had no effect on β2m fibrillation even at a concentration as high as 290 μM. All five αB crystallin peptides inhibited β2m fibrillation at sub-stoichometric and stoichometric concentrations (5.8 μM and 29 μM).\nThe Thioflavin T (ThT) fluorescence of β2m in the presence of varying concentrations of αB crystallin peptides and controls was measured. […] When the concentration of the peptides was increased to 29 μM (1:1::peptide:β2m), the αB crystallin peptides decreased the ThT fluorescence by 35-65%. When the concentration of the peptides was increased further to 145 μM ([…]), the αB crystallin peptides decreased the ThT fluorescence by 13-27%. […] The formation and inhibition of β2-microglobulin fibrils was verified microscopically.\nβ2-microglobulin fibrillation ThT assays were performed as described previously. Raman et al., Biochem J 392:573-81, 2005; Ivanova et al., Proc Natl Acad Sci USA 101:10584-9, 2004. Peptides were dissolved to 2 mM in 0.25% DMSO and diluted accordingly, while β2-microglobulin was dissolved in 25 mM sodium acetate, 25 mM sodium phosphate, pH 2.4. For the 5:1::peptide:β2-microglobulin assay, 10 μL of 430 μM peptide was mixed with 10 μL of 86 μM β2-microglobulin, 7 μl of 25 mM sodium acetate, 25 mM sodium phosphate, pH 2.4 and 3 μL of 1 mM ThT. For the 1:1::peptide:β2-microglobulin assay, 10 μL of 86 μM peptide was mixed with 10 μL of 86 μM (2-microglobulin, 7 μl of 25 mM sodium acetate, 25 mM sodium phosphate, pH 2.4 and 3 μL of 1 mM ThT. For the 1:5::peptide:β2-microglobulin assay, 10 μL of 17.2 μM peptide was mixed with 10 μL of 86 μM β2-microglobulin, 7 μl of 25 mM sodium acetate, 25 mM sodium phosphate, pH 2.4 and 3 μL of 1 mM ThT. ThT fluorescence was measured using a Perkin Elmer Victor^3 V plate reader. Assays were performed in 384-well fluorescence plates in duplicates or triplicates. Samples were incubated at 37° C. ThT fluorescence was measured continuously for 180 minutes. The effect of the peptides and APS was calculated as percentage fibril formation relative to β2-microglobulin alone (100%) at the end of 180 minutes."}, "amyloid beta (1-42)": {"molecular_target": "amyloid beta (1-42) (Homo sapiens, UniProt P05067)", "assay": "Cu+++-induced aggregation of amyloid beta (1-42), light scattering 360 nm", "details": "100 mM Cu+++", "experimental": "In vitro assays were also performed to measure the ability of the human αB crystallin derived peptides identified in Example 1 to inhibit aggregation of Cu^+++-induced amyloid beta (1-42) aggregation. Aggregation assays were performed using routine procedures, in the presence or absence of a synthesized peptide identified in Example 1, in the presence of 100 mM Cu^+++. Aggregation was measured spectrophotometrically as light scattering at a wavelength of 360 nm. Aggregated amyloid-beta was assigned a value of 100% aggregation and used to normalize aggregation in the presence of synthesize peptides.\nAggregation was measured spectrophotometrically as light scattering at a wavelength of 360 nm. Aggregated amyloid-beta was assigned a value of 100% aggregation and used to normalize aggregation in the presence of synthesize peptides. Aggregation was plotted as a bar graph with the standard error for duplicate experiments. The 1 st vertical bar is the scattering measured for aggregated amyloid-beta (100% aggregation) in the presence of 100 mM Cu^+++. The 2nd-4th vertical bars is the scattering from amyloid-beta in the presence of wild type recombinant human αB crystallin. The 5th-13th vertical bars are the scattering of amyloid-beta in the presence of the synthetic peptides, DRFSVNLDVKHFS or LTITSSLSDGV or HGKHEERQDE at selected concentrations. A prefix of 10× represents a 10:1 molar concentration of amyloid-beta to either wild type αB crystallin or its peptides. A prefix of 1× represents a 1:1 molar concentration of amyloid-beta to either wt αB crystallin or its peptides. A prefix of 0.1× represents a 1:10 molar concentration of amyloid-beta to either wt αB crystallin or its peptides."}, "βH crystallin": {"system": "βH crystallin", "assay": "Chaperone assay, thermal aggregation of βH crystallin at 50° C.", "details": "50:1 molar ratio of peptide:βH crystallin, sixty minutes, 340 nm", "experimental": "(§1) The chaperone activity of the peptides was measured as their ability to protect against the thermal aggregation of three chaperone target proteins βH crystallin, ADH and CS in chaperone assays performed at 50° C. (FIG. 19). A non-interactive αB crystallin sequence 111HGKHEERQDE120 was used as the negative control in the chaperone assays (FIG. 19). Based on near and far UVCD, the three target proteins unfolded in the order: CS>>>ADH>>βH crystallin when they were heated at 50° C. for sixty minutes (FIGS. 15 and 16). The thermal aggregation of βH crystallin, ADH and CS was measured as light scattering at λ=340 nm in the presence and absence of each peptide. The chaperone activity of each peptide was calculated as percent protection in which the aggregation of each target protein in the absence of any peptides was set at 0% protection (FIG. 19). The interactive peptides […] and 131LTITSSLSDGV141 were effective inhibitors of aggregation of all three chaperone target proteins.\n(§2) A (top left): thermal aggregation of chaperone target proteins βH crystallin, ADH and CS in the absence of peptides was measured as light scattering at λ=340 nm. Each target protein was heated at 50° C. for sixty minutes in the absence or presence of one of the peptides. […] The chaperone activity of each peptide was calculated as percent protection in which the aggregation of each target protein in the absence of any peptides was set at 0% protection. The ability of the 73DRFSVNLDVKHFS85, 131LTITSSLSDGV141 and 111HGKHEERQDE120 to protect against the thermal aggregation of βH crystallin (B: top right), ADH (C: bottom left) and CS (D: bottom right) were tested in vitro (vertical bars). […] A 10:1 molar ratio of peptide:target protein was sufficient in conferring significant protection against the aggregation of CS by 73DRFSVNLDVKHFS85 and 131LTITSSLSDGV141."}, "ADH": {"molecular_target": "ADH (Equus caballus, UniProt P00327)", "sequence (P00327 whole entry)": "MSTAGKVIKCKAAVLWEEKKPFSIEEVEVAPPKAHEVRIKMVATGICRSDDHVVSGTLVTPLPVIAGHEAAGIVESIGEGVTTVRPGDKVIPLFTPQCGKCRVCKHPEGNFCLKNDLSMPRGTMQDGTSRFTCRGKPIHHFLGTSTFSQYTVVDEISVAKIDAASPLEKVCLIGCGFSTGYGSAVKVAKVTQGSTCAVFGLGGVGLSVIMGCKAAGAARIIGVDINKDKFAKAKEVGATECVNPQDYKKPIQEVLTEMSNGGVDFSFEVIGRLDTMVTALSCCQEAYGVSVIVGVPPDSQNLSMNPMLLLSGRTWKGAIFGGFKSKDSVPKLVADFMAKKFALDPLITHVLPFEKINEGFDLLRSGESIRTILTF", "assay": "Chaperone assay, thermal aggregation of ADH at 50° C.", "details": "50:1 molar ratio of peptide:ADH, sixty minutes, 340 nm", "experimental": "as §1, §2"}}, "data": [{"substance": "EERQ", "values": [{"measurement": "inhibition of β2-microglobulin fibril formation, HG derived peptides", "setting": "β2-microglobulin (β2m)", "result": "~100", "unit": "%"}]}, {"substance": "LTITSSLSDGV", "values": [{"measurement": "prevention of Cu+++-induced aggregation of amyloid-beta", "setting": "amyloid beta (1-42); 1:1 and 1:10 molar ratio of amyloid-beta to peptide", "result": "equally effective"}, {"measurement": "prevention of Cu+++-induced aggregation of amyloid-beta", "setting": "amyloid beta (1-42); 10:1 molar ratio of amyloid-beta to peptide", "result": "less effective"}, {"measurement": "percent protection against thermal aggregation of βH crystallin", "setting": "βH crystallin", "result": "approximately 30%"}, {"measurement": "percent protection against thermal aggregation of ADH", "setting": "ADH", "result": "approximately 30%"}]}, {"substance": "RQDE", "values": [{"measurement": "inhibition of β2-microglobulin fibril formation, HG derived peptides", "setting": "β2-microglobulin (β2m)", "result": "~100", "unit": "%"}]}]}
